For orientation: EC50 means the midpoint of the concentration-response curve. Lower therefore signals an effect from little substance. For orientation: Kd means the concentration at which binding is half-saturated. A low value points to tighter binding.

Consider 13 molecules from patent publication US11912763 (dated 2024).

Values joined by “and” are separate entries in the source; they are usually repeats but may differ in a detail not shown here. Equal values may be shown once. Read-outs that look alike come from different tables or passages of the source.

The target of experiment [1] is T1, mouse CLDN18.2 (mouse, UniProt P56857).
T1 chain: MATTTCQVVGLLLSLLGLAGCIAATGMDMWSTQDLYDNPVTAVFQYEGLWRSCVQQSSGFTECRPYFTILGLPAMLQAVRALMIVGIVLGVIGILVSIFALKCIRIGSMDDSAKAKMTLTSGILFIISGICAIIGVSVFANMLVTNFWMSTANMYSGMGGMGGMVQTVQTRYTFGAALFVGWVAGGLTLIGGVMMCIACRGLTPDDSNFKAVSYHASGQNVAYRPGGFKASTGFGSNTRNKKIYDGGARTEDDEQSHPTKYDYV
The experiment can be described thus: ELISA.

The target in experiment [2] is T2, human CLDN18.2 (human, UniProt P56856). The experiment can be described thus: ELISA. (In general: An ELISA detects its analyte on a solid surface through an enzyme-linked reagent.)
The target in experiment [3] is T2, human CLDN18.2. Briefly: ELISA. The source holds these as a separate data set.
Experiment [4] concerns the target T2, human CLDN18.2. Briefly: ELISA. This is another data set of the same source.
The target in experiment [5] is T2, human CLDN18.2. The experiment can be described thus: ELISA. This is another data set of the same source.
Experiment [6] deals with T2, human CLDN18.2. Briefly: ELISA. The source holds these as a separate data set.
Experiment [7] concerns the target T2, human CLDN18.2. Briefly: ELISA. This is another data set of the same source.
The target of experiment [8] is T2, human CLDN18.2. The experiment can be described thus: ELISA. The source holds these as a separate data set.
The target of experiment [9] is T2, human CLDN18.2. Briefly: ELISA. This is another data set of the same source.
Experiment [10] deals with T2, human CLDN18.2. The experiment can be described thus: ELISA. This is another data set of the same source.
The target in experiment [11] is T2, human CLDN18.2. The experiment can be described thus: ELISA. The source holds these as a separate data set.
In experiment [12] the target is T2, human CLDN18.2. The experiment can be described thus: ELISA. The source holds these as a separate data set.
The target of experiment [13] is T3, human CLDN18.1 (human, UniProt P56856).
T3 chain: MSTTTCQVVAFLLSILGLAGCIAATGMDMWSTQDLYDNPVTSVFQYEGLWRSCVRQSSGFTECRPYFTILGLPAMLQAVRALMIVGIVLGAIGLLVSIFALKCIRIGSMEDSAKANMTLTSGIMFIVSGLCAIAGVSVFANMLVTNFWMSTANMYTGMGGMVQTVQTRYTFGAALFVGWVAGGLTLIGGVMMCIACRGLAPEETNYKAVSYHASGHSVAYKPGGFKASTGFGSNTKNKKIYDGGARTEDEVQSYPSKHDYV
The experiment can be described thus: ELISA.

The target of experiment [14] is T2, human CLDN18.2. Briefly: KinExA. For orientation: In KinExA the mixture passes briefly over coated beads that capture the unbound partner.
The target in experiment [15] is T3, human CLDN18.1. The experiment can be described thus: ELISA.
Experiment [16] concerns the target T2, human CLDN18.2. Briefly: ELISA, serum 0 h.
Experiment [17] deals with T2, human CLDN18.2. The experiment can be described thus: ELISA, serum 24 h.
Experiment [18] has as its target T2, human CLDN18.2. Briefly: ELISA, serum 72 h.
In experiment [19] the target is T1, mouse CLDN18.2. Briefly: ELISA.

B1: Ab10 (antibody)
chain 1: QVQLVQSGAEVKKPGSSVKVSCKASGYAFSNYLIEWVKQAPGQGLEWIGLINPGSGGTNYNEKFKGKATITADKSTSTAYMELSSLRSEDTAVYYCARVYYGNSFAYWGQGTLVTVSS
chain 2: DIVMTQSPDSLAVSLGERATISCKSSQSLLNSGNQKNYLTWYQQKPGQPPKLLIYWASTRESGVPDRFSGSGSGTDFTLTISSLQAEDVAVYYCQNDYFYPFTFGQGTKLEIK
For the molecule B1, the EC50 amounted to 0.371 nM in the experiment with mouse CLDN18.2 [1]; 0.51 nM with human CLDN18.2 [2]; 0.117 nM with human CLDN18.2 [3]; 0.164 nM with human CLDN18.2 [4]; 0.151 nM with human CLDN18.2 [5]; 0.208 nM with human CLDN18.2 [6]. Also, the concentration giving a half-maximal response (EC50) in the experiment with human CLDN18.2 [7] was 0.157 nM; in the experiment with human CLDN18.2 [8], 0.36 nM and 0.69 nM; in the experiment with human CLDN18.2 [9], 0.38 nM; with human CLDN18.2 [10], 0.69 nM; with human CLDN18.2 [11] it was 0.42 nM; with human CLDN18.2 [12], 0.2 nM. In addition, in the experiment with human CLDN18.1 [13], the binding result is listed as “no binding”. Moreover, the Kd in the experiment with human CLDN18.2 [14] amounted to 0.0133 nM.

B2: Ab15 (antibody, V domains shown)
VH: QVQLVQSGAEVKKPGSSVKVSCKASGYAFSNYLIEWVKQAPGQGLEWIGLINPGSGGTNYNEKFKGKATITADKSTSTAYMELSSLRSEDTAVYYCARVYYGNSFAYWGQGTLVTVSS
VL: DIVMTQSPDSLAVSLGERATINCKSSQSLLNSGNNKNYLAWYQQKPGQPPKLLIYWASTRESGVPDRFSGSGSGTDFTLTISSLQAEDVAVYYCQNDYFYPFTFGQGTKLEIKR
As to B2, the binding result in the experiment with human CLDN18.1 [15] is “no binding”. For the same molecule, in the experiment with human CLDN18.2 [12], the response was half-maximal at 0.219 nM (EC50).

B3: ADC2 (antibody)
chain 1: QVQLVQSGAEVKKPGSSVKVSCKASGYAFSNYLIEWVKQAPGQGLEWIGLINPGSGGTNYNEKFKGKATITADKSTSTAYMELSSLRSEDTAVYYCARVYYGNSFAYWGQGTLVTVSS
chain 2: DIVMTQSPDSLAVSLGERATISCKSSQSLLNSGNQKNYLTWYQQKPGQPPKLLIYWASTRESGVPDRFSGSGSGTDFTLTISSLQAEDVAVYYCQNDYFYPFTFGQGTKLEIK
modifications: Ab10 MC-VC-PAB-MMAF conjugate
In the experiment with human CLDN18.2 [4], B3 showed a half-maximal effective concentration (EC50) of 0.31 nM.

B4: Ab36 (antibody, V domains shown)
VH: QVQLVQSGAEVKKPGSSVKVSCKASGYAFSNYLIEWVKQAPGQGLEWIGLINPGSGGTNYNEKFKGKATITADKSTSTAYMELSSLRSEDTAVYYCARVYYGNTFAYWGQGTLVTVSS
VL: DIVMTQSPDSLAVSLGERATISCKSSQSLLNTGNNKNYLAWYQQKPGQPPKLLIYWASTRESGVPDRFSGSGSGTDFTLTISSLQAEDVAVYYCQNDYFYPFTFGQGTKLEIK
For B4, the concentration giving a half-maximal response (EC50) amounted to 0.518 nM with mouse CLDN18.2 [1] and 0.211 nM with human CLDN18.2 [6].

B5: LB432 CLDN18.2 arm (antibody)
chain 1: QVQLVQSGAEVKKPGSSVKVSCKASGYAFSNYLIEWVKQAPGQGLEWIGLINPGSGGTNYNEKFKGKATITADKSTSTAYMELSSLRSEDTAVYYCARVYYGNSFAYWGQGTLVTVSS
chain 2: DIVMTQSPDSLAVSLGERATISCKSSQSLLNSGNQKNYLTWYQQKPGQPPKLLIYWASTRESGVPDRFSGSGSGTDFTLTISSLQAEDVAVYYCQNDYFYPFTFGQGTKLEIK
For the molecule B5, the concentration giving a half-maximal response (EC50) in the experiment with human CLDN18.2 [9] amounted to 0.74 nM; with human CLDN18.2 [16], 0.357 nM; in the experiment with human CLDN18.2 [17], 0.535 nM; in the experiment with human CLDN18.2 [18], 1.2 nM.

B6: Ab9 (antibody, V domains shown)
VH: QVQLVQSGAEVKKPGSSVKVSCKASGYAFSNYLIEWVKQAPGQGLEWIGLINPGSGGTNYNEKFKGKATLTADKSTSTAYMELSSLRSEDTAVYFCARVYYGNSFAYWGQGTLVTVSS
VL: DIVMTQSPDSLAVSLGERATISCKSSQSLLNSGNQKNYLTWYQQKPGQPPKLLIYWASTRESGVPDRFSGSGSGTHFTLTISSLQAEDVAVYYCQNDYFYPFTFGQGTKLEIKR
B6 returned an EC50 in the experiment with human CLDN18.2 [3] of 0.339 nM. Also, the binding result with human CLDN18.1 [13] was “no binding”.

B7: Ab8 (antibody, V domains shown)
VH: QVQLVQSGAEVKKPGSSVKVSCKASGYAFSNYLIEWVKQAPGQGLEWIGLINPGSGGTNYNEKFKGKATLTADKSTSTAYMELSSLRSEDTAVYFCARVYYGNSFAYWGQGTLVTVSS
VL: DIVMTQSPDSLAVSLGERATISCKSSQSLLNSGNQKNYLTWYQQKPGQPPKLLIYWASTRESGVPDRFSGSGSGTDFTLTISSLQAEDVAVYYCQNDYFYPFTFGQGTKLEIKR
Turning to B7, in the experiment with human CLDN18.2 [3], the response was half-maximal at 0.227 nM (EC50). Further, the binding result in the experiment with human CLDN18.1 [13] is reported as “no binding”.

B8: LB155 CLDN18.2 arm (antibody)
chain 1: QVQLVQSGAEVKKPGSSVKVSCKASGYAFSNYLIEWVKQAPGQGLEWIGLINPGSGGTNYNEKFKGKATITADKSTSTAYMELSSLRSEDTAVYYCARVYYGNSFAYWGQGTLVTVSS
chain 2: DIVMTQSPDSLAVSLGERATISCKSSQSLLNSGNQKNYLTWYQQKPGQPPKLLIYWASTRESGVPDRFSGSGSGTDFTLTISSLQAEDVAVYYCQNDYFYPFTFGQGTKLEIK
The molecule B8 yielded an EC50 with human CLDN18.2 [8] of 0.59 nM.

B9: ADC1 (antibody)
chain 1: QVQLVQSGAEVKKPGSSVKVSCKASGYAFSNYLIEWVKQAPGQGLEWIGLINPGSGGTNYNEKFKGKATITADKSTSTAYMELSSLRSEDTAVYYCARVYYGNSFAYWGQGTLVTVSS
chain 2: DIVMTQSPDSLAVSLGERATISCKSSQSLLNSGNQKNYLTWYQQKPGQPPKLLIYWASTRESGVPDRFSGSGSGTDFTLTISSLQAEDVAVYYCQNDYFYPFTFGQGTKLEIK
modifications: Ab10 SMCC-DM1 conjugate
Consider B9, for which, in the experiment with human CLDN18.2 [4], the EC50 was determined as 0.344 nM.

B10: Ab6 (antibody, V domains shown)
VH: QVQLVQSGAEVKKPGSSVKVSCKASGYAFSNYLIEWVKQAPGQGLEWIGLINPGSGGTNYNEKFKGKATITADKSTSTAYMELSSLRSEDTAVYYCARVYYGNSFAYWGQGTLVTVSS
VL: DIVMTQSPDSLAVSLGERATISCKSSQSLLNSGNNKNYLAWYQQKPGQPPKLLIYWASTRESGVPDRFSGSGSGTDFTLTISSLQAEDVAVYYCQNDYFYPFTFGQGTKLEIK
B10: the values for the EC50 in the experiment with mouse CLDN18.2 [1], with human CLDN18.2 [6] and in the experiment with human CLDN18.2 [12] were 0.594 nM, 0.22 nM and 0.222 nM, respectively. In addition, the binding result in the experiment with human CLDN18.1 [15] is listed as “no binding”.

B11: Ab35 (antibody, V domains shown)
VH: QVQLVQSGAEVKKPGSSVKVSCKASGYAFSNYLIEWVKQAPGQGLEWIGLINPGSGGTNYNEKFKGKATITADKSTSTAYMELSSLRSEDTAVYYCARVYYGNTFAYWGQGTLVTVSS
VL: DIVMTQSPDSLAVSLGERATISCKSSQSLLNTGNQKNYLTWYQQKPGQPPKLLIYWASTRESGVPDRFSGSGSGTDFTLTISSLQAEDVAVYYCQNDYFYPFTFGQGTKLEIK
In the experiment with human CLDN18.2 [6], B11 had a concentration giving a half-maximal response (EC50) of 62.1 nM. Besides, the binding result with mouse CLDN18.2 [19] was “no binding”.

B12: Ab7 (antibody, V domains shown)
VH: QVQLVQSGAEVKKPGSSVKVSCKASGYAFSNYLIEWVKQAPGQGLEWIGLINPGSGGTNYNEKFKGKATITADKSTSTAYMELSSLRSEDTAVYYCARVYYGNSFAYWGQGTLVTVSS
VL: DIVMTQSPDSLAVSLGERATISCKSSQSLLNSGNQKNYLTWYQQKPGQPPKLLIYWASTRESGVPDRFSGSGSGTHFTLTISSLQAEDVAVYYCQNDYFYPFTFGQGTKLEIKR
Take B12: a half-maximal response with human CLDN18.2 [3] (EC50) required 0.282 nM. Moreover, the binding result with human CLDN18.1 [13] is “no binding”.

B13: LB195 CLDN18.2 arm (antibody)
chain 1: QVQLVQSGAEVKKPGSSVKVSCKASGYAFSNYLIEWVKQAPGQGLEWIGLINPGSGGTNYNEKFKGKATITADKSTSTAYMELSSLRSEDTAVYYCARVYYGNSFAYWGQGTLVTVSS
chain 2: DIVMTQSPDSLAVSLGERATISCKSSQSLLNSGNQKNYLTWYQQKPGQPPKLLIYWASTRESGVPDRFSGSGSGTDFTLTISSLQAEDVAVYYCQNDYFYPFTFGQGTKLEIK
For the molecule B13, the EC50 in the experiment with human CLDN18.2 [8] amounted to 0.5 nM. This lies in the sub-nanomolar range.
